Here are results for 27 sequences from the domain aggregation screens of Martell et al. (2025).

A short description of the series: soluble fraction after stress (log2 fold change); higher = more stays soluble; pooled small domains, quantitative proteomics. The following applies: stress: pH 4. The method, boiled down: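 Custom libraries of small protein domains were pooled and exposed to pH 4. High-throughput quantitative proteomics then measured the log2 fold change in the amount of each domain still soluble, with higher values meaning more stayed soluble. This soluble-fraction fold change stands for aggregation propensity.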
For the sequence “HMIKLSTNENTALRLVMERGLVTESELKGLFDNPVAVMESLISKMIETNTHWIHSERSENGEWVYAWQ”, the “soluble fraction (log2)” value was -1.46.

Regarding “HMIKNDIGKFIKLYRETHQWSQRELAEHLGVSQRNVSYYEKGERIPPADVLKKLSTLFDVPVDVLLGLK”, the “soluble fraction (log2)” value is -0.274.

For the sequence “HMIKRDLAFSEFIAEVKAGQVREVTIKGNSISGNLNDGREFNTYAPNDPNLVKTLTDQGVLIRAIPLE”, the “soluble fraction (log2)” value worked out at 0.227.

For “HMILNPQELGERIRKLRLKRNKTQSYFADMLYISSSYLALIESGKRVPNLDLLIHIAKFTDVTLDYLVFG”, the “soluble fraction (log2)” value was -0.573.

On to “HMILVLKPGAPEDLKNELIHDIEKMGLRVHVSVGEGTTIIGLIGDTSKISKYTFSSYEIVSNVLRVT”, for which the “soluble fraction (log2)” value is -0.35.

Regarding “HMILYDDEYKGPRYRYGLHSRPLSPGAVPKGFIIHSDRPHPDFRHGTLDYPVKLPDDRAANFELIFIGEFD”, the “soluble fraction (log2)” value was -1.19.

“HMIMMTLGEKIRSIRKAKGMTQQELAEKLNTTKQTIGKYEKGIVTNLPLFRINELARALSTTPAYLTGW”: the “soluble fraction (log2)” value is at least 0.43.

As for “HMIMPSDATEAKLLGVLGNEPLHVDEIRNQAELPIEKVSAALALMELKGMVRQVGGMNYVAVR”, the “soluble fraction (log2)” value was -0.263.

Take “HMIMQTTSDRINQRMRDLGLQHKDLVAATGASKGTVTNWINGVNNPTGKRLVQLAQALKTTSSWLLTGN”: the “soluble fraction (log2)” value is -0.0389.

With “HMINDPSALGQRAFVDELLWMAGYVPEKIEIYQTLPNNSRVYRVKLDSVNGGFIFIRWDKKKKEHYV”, the “soluble fraction (log2)” value was -0.444.

Take “HMINEEELLKIENIKRKYPDSKAALMPVLYFFQEKYGFISDDSIKEISQLLNISEVDIKGVVSFYEMFHEK”: the “soluble fraction (log2)” value was -1.04.

With “HMINEVVSLRDVPSFIGKAKRDVIRIAEENNLKIKINGNGYVKEQTPNPGNKYKSNQEIKVFLEPG”, the “soluble fraction (log2)” value was 0.0157.

For the sequence “HMINFSKNIISDTTSIKEAIEILNIISGRDNHILFVLNDKRQLIGTLSDGDVRRGMLASKTISQSVTEVM”, the “soluble fraction (log2)” value amounted to 0.0244.

As to “HMINIDESIDESLSEDDAVLDLLERASASFTKAQEALLEGDLGRYQTLIEQADRLVAKALELLDEKN”, the “soluble fraction (log2)” value is -1.34.

Turning to “HMINIQYSYNDGKETLHNLSPEVIAEKIMDDPNGYHIVWKQGMVGWVNANDIDDIAKLLRQKK”, the “soluble fraction (log2)” value is -0.0166.

For the sequence “HMINKDNLIEEILKFINTKIADISSNNPLFDIVAKPYISKVVTNNVSKLDKALSLIADDKGMVDADGLLT”, the “soluble fraction (log2)” value was -0.295.

Consider “HMINLDGIGEKISRLRKEQGVTIRELSEYTGYSVGFLSNLETGKNSPTVESLQRVAEALRTDIIEILTK”, for which the “soluble fraction (log2)” value was -0.754.

In the case of “HMINLNEVLANFQKSYPNLAGFKYDQGMDALVYEGNYIRLNGYMLSRINPTLFSMSPDDIFTYLKNGF”, the “soluble fraction (log2)” value is -1.22.

Take “HMINRMGRLVEALSHMIANTKPGARLPSEPELARQLGVSRATLREAMRTFEAQGMIHRRQGAGTFVVH”: the “soluble fraction (log2)” value is 0.00515.

Consider “HMINYSQKQLIAIQDELSKRFQALENESTKNNVTGFGVGLHYIDIDLIVNTPEKQKEFREKIMDSPAFRFN”, for which the “soluble fraction (log2)” value is 0.106.

As for “HMINYYELLKLDMNAAHEEINDAIKLESEKNTIPEDQIRTMKSIFFNTEFKKEYDQRLMNFLLT”, the “soluble fraction (log2)” value is -1.28.

With “HMIPDAIDPDGRFKWRAGEAVVGFGRHAGEPLKKIAIENPEFLRWILKADFSTDVKKIASDALKGYFPEK”, the “soluble fraction (log2)” value amounted to 0.284.

With “HMIPDLPAVGVNVHKERRRQQLSLDALAAGSGVSKAMLSQIESGKVNPTVATMWKIAHALGVDFELLLKGE”, the “soluble fraction (log2)” value is -0.00451.

In the case of “HMIPDPPALGSNLHRERRRQQLSLDALAAASGVSKAMLSQIEADKVNPTIATMWKIAHALNIDFETLLRGE”, the “soluble fraction (log2)” value was determined as 0.172.

In the case of “HMIPENKRVLISLTYIYGIGKKISQDILEKANIDSSIKTSQLTDDDVARIRQLIENDYLVEGELRV”, the “soluble fraction (log2)” value is 0.00777.

As for “HMIPLPEDVASMRERLALTPEKADELFGLEDGSFARYEHGEEKVPFVVFQLLWLLGKYPHLIGELR”, the “soluble fraction (log2)” value is -0.801.

Turning to “HMIPRGFSRYYILELLQKKPHTGKEIIDNAIKESGGRWNPSPGLIYPLLGRLLDENLIEETNDGKYK”, the “soluble fraction (log2)” value was -0.631.
